Test results: publication PMC8577781

target: human recombinant CXCL10 (human) (UniProt P02778)
Sequence of UniProt P02778 (P02778 22-98): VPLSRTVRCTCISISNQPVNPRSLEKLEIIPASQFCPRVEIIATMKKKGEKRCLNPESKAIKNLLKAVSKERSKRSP

| Substance | CXCL10 cleavage rate: GP63 in conditioned medium incubated with 1000 pg/mL CXCL10 for 2 hours, remaining CXCL10 measured by ELISA, rate by linear regression |
| --- | --- |
| L. (L.) major GP63 (glycoprotein-63), wild-type allele gp63^PYSDGS (from UniProt P08148 40-577) (enzyme) | 6.07 pg/mL/min |
| L. (L.) major GP63 D463N mutant gp63^PYSNGS (from UniProt P08148 40-577) (enzyme) | 1.16 pg/mL/min |
| L. (L.) major GP63 triple mutant gp63^GYSNGA (from UniProt P08148 40-577) (enzyme) | 0.14 pg/mL/min |
